Experimental data: the supplement of paper PMC9112550, “Optimization of the antimicrobial peptide Bac7 by deep mutational scanning” (BMC Biology, 2022)

What follows are sequences tested on Escherichia coli TOP10 (assay: shrunken log2 fold change of peptide-encoding DNA abundance (4.5 h post-induction vs induction); higher = less antimicrobial activity (less host growth inhibition)). Details: time post-induction: 4.5 h; library: site-saturation at positions 5, 18, 19, 20.
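Also: peptides expressed intracellularly from a pBAD plasmid library in pooled LB shake-flask culture, induced with 0.3% L-arabinose, DNA abundance read by NGS, three biological replicates, DESeq2 with apeglm shrinkage.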

Sequence | shrunken log2 fold change
RRIRHRPPRLPRPRPRPGRPPRP | 0.616
RRIRWRPPRLPRPRPRPSSAPRP | 0.443
RRIRSRPPRLPRPRPRPYKYPRP | -0.637
RRIRQRPPRLPRPRPRPEQDPRP | 0.311
RRIRFRPPRLPRPRPRPSFPPRP | -0.38
RRIRIRPPRLPRPRPRPKNAPRP | -0.107
RRIRARPPRLPRPRPRPRVRPRP | 0.567
RRIRWRPPRLPRPRPRPIWSPRP | 0.629
RRIRDRPPRLPRPRPRPEKCPRP | -0.000921
RRIRERPPRLPRPRPRPSRGPRP | 0.49
RRIRWRPPRLPRPRPRPCNMPRP | -0.179
RRIRKRPPRLPRPRPRPTAMPRP | 0.358
RRIRARPPRLPRPRPRPFGYPRP | 0.167
RRIRPRPPRLPRPRPRPDWPPRP | 0.524
RRIRIRPPRLPRPRPRPNWHPRP | -0.227
RRIRIRPPRLPRPRPRPMKMPRP | -0.127
RRIRNRPPRLPRPRPRPNYGPRP | -0.0781
RRIRVRPPRLPRPRPRPISKPRP | -0.184
RRIRKRPPRLPRPRPRPWWVPRP | 0.404
RRIRHRPPRLPRPRPRPLARPRP | 0.113
RRIRRRPPRLPRPRPRPAEYPRP | 0.0756
RRIRIRPPRLPRPRPRPVKWPRP | -0.0064
RRIRGRPPRLPRPRPRPQVLPRP | 0.0422
RRIRCRPPRLPRPRPRPMKCPRP | -0.173
RRIRVRPPRLPRPRPRPGDAPRP | 0.0792

Sequence | shrunken log2 fold change
RRIRYRPPRLPRPRPRPWCPPRP | -0.28
RRIRMRPPRLPRPRPRPSPDPRP | 1.19
RRIRVRPPRLPRPRPRPYPFPRP | -0.863
RRIRHRPPRLPRPRPRPNPFPRP | -0.67
RRIRDRPPRLPRPRPRPTLGPRP | 1.08
RRIRHRPPRLPRPRPRPGYLPRP | -0.243
RRIRKRPPRLPRPRPRPHGKPRP | 0.109
RRIRVRPPRLPRPRPRPFSDPRP | -0.263
RRIRPRPPRLPRPRPRPVTGPRP | -0.0902
RRIRCRPPRLPRPRPRPFPHPRP | -0.175
RRIRPRPPRLPRPRPRPEMYPRP | -0.269
RRIRDRPPRLPRPRPRPWIFPRP | 0.148
RRIRTRPPRLPRPRPRPEQQPRP | 0.436
RRIRERPPRLPRPRPRPEVAPRP | 0.907
RRIRWRPPRLPRPRPRPPATPRP | 1.06
RRIRVRPPRLPRPRPRPFLYPRP | -0.728
RRIRFRPPRLPRPRPRPGFDPRP | 0.0857
RRIRARPPRLPRPRPRPRKVPRP | 0.615
RRIRWRPPRLPRPRPRPCNCPRP | -0.289
RRIRFRPPRLPRPRPRPPSIPRP | -0.0341
RRIRCRPPRLPRPRPRPAMRPRP | 0.509
RRIRWRPPRLPRPRPRPIENPRP | 0.0363
RRIRRRPPRLPRPRPRPLFIPRP | -0.27
RRIRWRPPRLPRPRPRPPMDPRP | 0.0637
RRIRMRPPRLPRPRPRPQPQPRP | 0.717

Sequence | shrunken log2 fold change
RRIRRRPPRLPRPRPRPPGLPRP | 0.658
RRIRWRPPRLPRPRPRPPFHPRP | 0.0947
RRIRIRPPRLPRPRPRPPMLPRP | -0.382
RRIRYRPPRLPRPRPRPCDWPRP | -0.0122
RRIRCRPPRLPRPRPRPQDVPRP | -0.176
RRIRKRPPRLPRPRPRPPNVPRP | 0.197
RRIRNRPPRLPRPRPRPWSPPRP | -0.245
RRIRPRPPRLPRPRPRPRQAPRP | 0.0176
RRIRWRPPRLPRPRPRPYYPPRP | -1.09
RRIRGRPPRLPRPRPRPTLNPRP | 0.835
RRIRKRPPRLPRPRPRPNLLPRP | -0.263
RRIRHRPPRLPRPRPRPDPVPRP | 0.126
RRIRQRPPRLPRPRPRPVDEPRP | -0.249
RRIRYRPPRLPRPRPRPYRFPRP | -0.168
RRIRSRPPRLPRPRPRPGATPRP | 0.584
RRIRLRPPRLPRPRPRPTKWPRP | -0.0762
RRIRHRPPRLPRPRPRPQMYPRP | -0.0219
RRIRSRPPRLPRPRPRPMFGPRP | -0.325
RRIRTRPPRLPRPRPRPINFPRP | -0.0833
RRIRERPPRLPRPRPRPTGWPRP | 0.0993
RRIRVRPPRLPRPRPRPVQCPRP | -0.0156
RRIRMRPPRLPRPRPRPMHAPRP | 0.327
RRIRKRPPRLPRPRPRPKCQPRP | 0.03
RRIRCRPPRLPRPRPRPCWMPRP | -0.404
RRIRCRPPRLPRPRPRPIVIPRP | -1.09
